In paper PMC12482648, “G-quadruplex structural motifs modulate protein–RNA interactions within the transcriptome”:

Legend:
[1] = molecular target: T1, FUS C-terminal RNA-binding module (His6-FUS) (UniProt P35637 269-526); test: EMSA; 150 mM KCl; supershift with anti-His; EMSA: 1 uM RNA, 0/0.1/1/5 uM His6-FUS, 50 mM HEPES-KOH (or HEPES-LiOH) pH 7.4, 150 mM KCl (or LiCl), 200 ng BSA, 2 mM EDTA, 2 mM DTT, 5% glycerol, 30 min 30 C; conditions: protein: recombinant, tags: His6 (pET28a-TEV), label: none (SYBR Gold stain)
T1 sequence (P35637 269-526): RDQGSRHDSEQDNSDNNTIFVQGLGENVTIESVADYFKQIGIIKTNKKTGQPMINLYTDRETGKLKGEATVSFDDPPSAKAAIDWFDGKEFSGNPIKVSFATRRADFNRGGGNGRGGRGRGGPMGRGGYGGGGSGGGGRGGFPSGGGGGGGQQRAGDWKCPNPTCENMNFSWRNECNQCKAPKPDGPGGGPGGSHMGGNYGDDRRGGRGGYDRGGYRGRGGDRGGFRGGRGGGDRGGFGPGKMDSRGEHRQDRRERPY

[2] = molecular target: T1, FUS C-terminal RNA-binding module …; test: EMSA; 150 mM KCl; EMSA: 1 uM RNA, 0/0.1/1/5 uM His6-FUS, 50 mM HEPES-KOH (or HEPES-LiOH) pH 7.4, 150 mM KCl (or LiCl), 200 ng BSA, 2 mM EDTA, 2 mM DTT, 5% glycerol, 30 min 30 C; conditions: protein: recombinant; tags: His6 (pET28a-TEV); label: none (SYBR Gold stain); none (non-G4)

Row | Binder | binding result ([1]; intramolecular G4 (in K+)) | binding result [2] | other results
1 | AGGGGGAGGGUGUGGGGGCAGUGAGGGU (structured_RNA) [28RPL23A WT] | binds |  | 
2 | AGUGUGAGUGUGUGUGUGCAGUGAGUGU (ssRNA) [28RPL23A mutant] |  | no binding | 
3 | UGUUGCGCGUGUCCCGUGGAGUGGA (ssRNA) [25COPS9 mutant] |  | no binding | 
4 | UGGUGCGCGGGUCCCGGGGAGGGGA (structured_RNA) [25COPS9 WT] |  |  | binding result ([1]; G4 (in K+)): binds
5 | UUAGGGUUAGGGUUAGGGUUAGGG (structured_RNA) [TERRA WT] | binds |  | 
